Results as given in the supplement of paper PMC10201428.
± gives the standard deviation of the averaged measurements.

Legend:
[1] = tested on: VchCAST RNA-guided transposition machinery (E. coli BL21(DE3) host, lacZ target); assay: relative integration efficiency (T-LR orientation) vs wild-type transposon end (log2 (normalized fold change)); transposon end mutated: right end (5 bp flank + 75 bp right end); higher = more efficient transposition
How it was run: (§1)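 Barcode abundances in input plasmids and in genomic integration junctions were obtained by PCR amplification and Illumina sequencing. These came from E. coli BL21(DE3) co-transformed with a T7-driven effector plasmid and a pUC57 donor carrying 1549 left-end or 1849 right-end transposon variants, then plated with 0.1 mM IPTG at 37°C for 18 h. Relative integration efficiency is the output/input fold change, normalised to reference barcodes and log-transformed.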

[2] = tested on: VchCAST RNA-guided transposition machinery (E. coli BL21(DE3) host, lacZ target); assay: relative integration efficiency (T-RL orientation) vs wild-type transposon end (log2 (normalized fold change)); transposon end mutated: right end (5 bp flank + 75 bp right end); higher = more efficient transposition
How it was run: as §1

Sequence	relative integration efficiency (log2) [1]	relative integration efficiency (log2) [2]
ACATTTGTTGATACAACCATATATTGATATCTCCAACCATATATTGATATCTCTCACACCCATAAATTGATATTGCCTCTGATCATAGTCAGACCAACATTGCTACGACCCGTATTCGCACCGACAC	-0.162 ± 0.005	-0.682 ± 0.15
ACATTTGTTGATACAACCATATATTGATATCTCCAACCATATATTGATATCTCTCAGTGGGTATTTAACTATAACGCTCTGATCATAGTCAGACCAACATTGCTACGACCCGTATTCGCACCGACAC	2.41 ± 0.14	-1.48 ± 0.31
ACATTTGTTGATACAACCATATATTGATATCTCCACCCATAAATTGATAATTATCACAACCATAAAATGATAATTACTCTGATCATAGTCAGACCAACATTGCTACGACCCGTATTCGCACCGACAC	-0.483 ± 0.35	-0.253 ± 0.0069
ACATTTGTTGATACAACCATATATTGATATCTCCACCCATAAATTGATAATTATCACAACCATAAAGTGATATTTACTCTGATCATAGTCAGACCAACATTGCTACGACCCGTATTCGCACCGACAC	-0.378 ± 0.45	-0.345 ± 0.0079
ACATTTGTTGATACAACCATATATTGATATCTCCACCCATAAATTGATAATTATCACAACCATAAGTTGATATTTTCTCTGATCATAGTCAGACCAACATTGCTACGACCCGTATTCGCACCGACAC	0.056 ± 0.33	-0.316 ± 0.1
ACATTTGTTGATACAACCATATATTGATATCTCCACCCATAAATTGATAATTATCACAACCATATATTGATATCTCCTCTGATCATAGTCAGACCAACATTGCTACGACCCGTATTCGCACCGACAC	-0.00761 ± 0.26	-0.13 ± 0.1
ACATTTGTTGATACAACCATATATTGATATCTCCACCCATAAATTGATAATTATCACACCCATAAATTGATAATTACTCTGATCATAGTCAGACCAACATTGCTACGACCCGTATTCGCACCGACAC	-0.06 ± 0.4	-0.315 ± 0.0034
ACATTTGTTGATACAACCATATATTGATATCTCCACCCATAAATTGATAATTATCACACCCATAAATTGATATTGCCTCTGATCATAGTCAGACCAACATTGCTACGACCCGTATTCGCACCGACAC	-0.187 ± 0.16	-0.348 ± 0.03
ACATTTGTTGATACAACCATATATTGATATCTCCACCCATAAATTGATAATTATCAGTGGGTATTTAACTATAACGCTCTGATCATAGTCAGACCAACATTGCTACGACCCGTATTCGCACCGACAC	2.29 ± 0.021	-1.01 ± 0.15
ACATTTGTTGATACAACCATATATTGATATCTCCACCCATAAATTGATATTGCTCACAACCATAAAATGATAATTACTCTGATCATAGTCAGACCAACATTGCTACGACCCGTATTCGCACCGACAC	-0.381 ± 0.46	-0.537 ± 0.12
ACATTTGTTGATACAACCATATATTGATATCTCCACCCATAAATTGATATTGCTCACAACCATAAAGTGATATTTACTCTGATCATAGTCAGACCAACATTGCTACGACCCGTATTCGCACCGACAC	-0.202 ± 0.54	-0.6 ± 0.069
ACATTTGTTGATACAACCATATATTGATATCTCCACCCATAAATTGATATTGCTCACAACCATAAGTTGATATTTTCTCTGATCATAGTCAGACCAACATTGCTACGACCCGTATTCGCACCGACAC	0.281 ± 0.01	-0.57247 ± 9.5e-05
ACATTTGTTGATACAACCATATATTGATATCTCCACCCATAAATTGATATTGCTCACAACCATATATTGATATCTCCTCTGATCATAGTCAGACCAACATTGCTACGACCCGTATTCGCACCGACAC	0.439 ± 0.28	-0.713 ± 0.056
ACATTTGTTGATACAACCATATATTGATATCTCCACCCATAAATTGATATTGCTCACACCCATAAATTGATAATTACTCTGATCATAGTCAGACCAACATTGCTACGACCCGTATTCGCACCGACAC	0.429 ± 0.13	-0.617 ± 0.12
ACATTTGTTGATACAACCATATATTGATATCTCCACCCATAAATTGATATTGCTCACACCCATAAATTGATATTGCCTCTGATCATAGTCAGACCAACATTGCTACGACCCGTATTCGCACCGACAC	0.466 ± 0.081	-0.524 ± 0.027
ACATTTGTTGATACAACCATATATTGATATCTCCACCCATAAATTGATATTGCTCAGTGGGTATTTAACTATAACGCTCTGATCATAGTCAGACCAACATTGCTACGACCCGTATTCGCACCGACAC	2.32 ± 0.041	-1.2 ± 0.17

Sequence	relative integration efficiency (log2) [1]	relative integration efficiency (log2) [2]
ACATTTGTTGATACAACCATATTATGATAATTACACCCATAAATTGATAATTATCACACCCATAAATTGATATTGCCTCTGATCATAGTCAGACCAACATTGCTACGACCCGTATTCGCACCGACAC	-0.476 ± 0.63	-0.2975 ± 0.0027
ACATTTGTTGATACAACCATATTATGATAATTACACCCATATTTTGATAATTATCACACCCATATTTTGATATTGCCTCTGATCATAGTCAGACCAACATTGCTACGACCCGTATTCGCACCGACAC	-0.471 ± 0.23	-0.5763 ± 0.0022
ACATTTGTTGATACAACCATATTTAGATAATTACACCCATAAATTGATAATTATCACACCCATAAATTGATATTGCCTCTGATCATAGTCAGACCAACATTGCTACGACCCGTATTCGCACCGACAC	-0.623 ± 0.22	-0.585 ± 0.14
ACATTTGTTGATACAACCATATTTAGATAATTACACCCATATTAAGATAATTATCACACCCATATTAAGATATTGCCTCTGATCATAGTCAGACCAACATTGCTACGACCCGTATTCGCACCGACAC	-1.1 ± 0.36	-2.27 ± 0.31
ACATTTGTTGATACAACCATATTTTGATAATTACACCCATATTATGATAATTATCACACCCATATTATGATATTGCCTCTGATCATAGTCAGACCAACATTGCTACGACCCGTATTCGCACCGACAC	-0.241 ± 0.0091	-0.721 ± 0.17
ACATTTGTTGATACAACCATCAAATGATAATTACACCCATACATTGATAATTATCACACCCAATTTAACTATAACGCTCTGATCATAGTCAGACCAACATTGCTACGACCCGTATTCGCACCGACAC	-0.0308 ± 0.27	-2.9 ± 0.42
ACATTTGTTGATACAACCATCAAATGATAATTACACCCATCAATTGATAATTATCACACCCATCAATTGATATTGCCTCTGATCATAGTCAGACCAACATTGCTACGACCCGTATTCGCACCGACAC	-1.14 ± 0.11	-1.73 ± 0.26
ACATTTGTTGATACAACCATCAAATGATAATTACACCCCTAAATTGATAATTATCACACCCAATTTAACTATAACGCTCTGATCATAGTCAGACCAACATTGCTACGACCCGTATTCGCACCGACAC	-0.622 ± 0.093	-3.41 ± 0.3
ACATTTGTTGATACAACCATCAAATGATAATTACACCCCTACATTGATAATTATCACACCCAATTTAACTATAACGCTCTGATCATAGTCAGACCAACATTGCTACGACCCGTATTCGCACCGACAC	-1.57 ± 0.21	-4.12 ± 0.053
ACATTTGTTGATACAACCATCAAATGATAATTCCACCCATAAATTGATAATTATCACACCCAATTTAACTATAACGCTCTGATCATAGTCAGACCAACATTGCTACGACCCGTATTCGCACCGACAC	1.44 ± 0.11	-1.53 ± 0.19
ACATTTGTTGATACAACCATCAAATGATAATTCCACCCATACATTGATAATTATCACACCCAATTTAACTATAACGCTCTGATCATAGTCAGACCAACATTGCTACGACCCGTATTCGCACCGACAC	-0.154 ± 0.093	-3.05 ± 0.042
ACATTTGTTGATACAACCATCAAATGATAATTCCACCCCTAAATTGATAATTATCACACCCAATTTAACTATAACGCTCTGATCATAGTCAGACCAACATTGCTACGACCCGTATTCGCACCGACAC	-1.01 ± 0.31	-3.65 ± 0.074
ACATTTGTTGATACAACCATCAAATGATAATTCCACCCCTACATTGATAATTATCACACCCAATTTAACTATAACGCTCTGATCATAGTCAGACCAACATTGCTACGACCCGTATTCGCACCGACAC	-0.8 ± 0.15	-4.18 ± 0.17
ACATTTGTTGATACAACCATCAAATGGTAATTACACCCATAAATTGATAATTATCACACCCAATTTAACTATAACGCTCTGATCATAGTCAGACCAACATTGCTACGACCCGTATTCGCACCGACAC	2.24 ± 0.09	-0.349 ± 0.42
ACATTTGTTGATACAACCATCAAATGGTAATTACACCCATACATTGATAATTATCACACCCAATTTAACTATAACGCTCTGATCATAGTCAGACCAACATTGCTACGACCCGTATTCGCACCGACAC	-1.54 ± 0.61	-4.04 ± 0.11
ACATTTGTTGATACAACCATCAAATGGTAATTACACCCCTAAATTGATAATTATCACACCCAATTTAACTATAACGCTCTGATCATAGTCAGACCAACATTGCTACGACCCGTATTCGCACCGACAC	-2.01 ± 0.77	-4.79 ± 0.36
